Square brackets hold non-standard residues; d marks the D form. Ends that are not written are not given here. dCit = NC(=O)NCCC[C@@H](N)C(=O)O
B1: wrleihw (peptide)
peptide: [dW][dR][dL][dE][dI][dH][dW]
B2: wklklrww (peptide)
peptide: [dW][dK][dL][dK][dL][dR][dW][dW]
B3: lkizihy (peptide)
peptide: [dL][dK][dI][dCit][dI][dH][dY]
B4: lririrfh (peptide)
peptide: [dL][dR][dI][dR][dI][dR][dF][dH]
B5: mrlrihw (peptide)
peptide: [dM][dR][dL][dR][dI][dH][dW]
B6: frlrihwf (peptide)
peptide: [dF][dR][dL][dR][dI][dH][dW][dF]
B7: wrlriew (peptide)
peptide: [dW][dR][dL][dR][dI][dE][dW]
B8: wrlriwww (peptide)
peptide: [dW][dR][dL][dR][dI][dW][dW][dW]
B9: wwrvklrw (peptide)
peptide: [dW][dW][dR][dV][dK][dL][dR][dW]
B10: wrlkvqw (peptide)
peptide: [dW][dR][dL][dK][dV][dQ][dW]
B11: wkvwvrgw (peptide)
peptide: [dW][dK][dV][dW][dV][dR]G[dW]
modifications: not fully specified (residue 7); printed as wkvwvrgw
B12: wririrw (peptide)
peptide: [dW][dR][dI][dR][dI][dR][dW]
B13: wrfkfrw (peptide)
peptide: [dW][dR][dF][dK][dF][dR][dW]
B14: fhirlewh (peptide)
peptide: [dF][dH][dI][dR][dL][dE][dW][dH]
B15: frlklrfh (peptide)
peptide: [dF][dR][dL][dK][dL][dR][dF][dH]
B16: lkiriwyh (peptide)
peptide: [dL][dK][dI][dR][dI][dW][dY][dH]
B17: wrlrihw (peptide)
peptide: [dW][dR][dL][dR][dI][dH][dW]
B18: wrfkvrw (peptide)
peptide: [dW][dR][dF][dK][dV][dR][dW]
B19: fhleirhw (peptide)
peptide: [dF][dH][dL][dE][dI][dR][dH][dW]
B20: lkiaihyh (peptide)
peptide: [dL][dK][dI][dA][dI][dH][dY][dH]
B21: fwlklrwf (peptide)
peptide: [dF][dW][dL][dK][dL][dR][dW][dF]
B22: wfkiklel (peptide)
peptide: [dW][dF][dK][dI][dK][dL][dE][dL]
B23: lairihy (peptide)
peptide: [dL][dA][dI][dR][dI][dH][dY]
B24: hrlkvrwh (peptide)
peptide: [dH][dR][dL][dK][dV][dR][dW][dH]
B25: lkirihlh (peptide)
peptide: [dL][dK][dI][dR][dI][dH][dL][dH]
B26: whvkfelf (peptide)
peptide: [dW][dH][dV][dK][dF][dE][dL][dF]
B27: lairihyh (peptide)
peptide: [dL][dA][dI][dR][dI][dH][dY][dH]
B28: lrieiewh (peptide)
peptide: [dL][dR][dI][dE][dI][dE][dW][dH]
B29: wrlkfrw (peptide)
peptide: [dW][dR][dL][dK][dF][dR][dW]
B30: feirlhhw (peptide)
peptide: [dF][dE][dI][dR][dL][dH][dH][dW]
B31: wrlqvrw (peptide)
peptide: [dW][dR][dL][dQ][dV][dR][dW]
B32: wwlrihw (peptide)
peptide: [dW][dW][dL][dR][dI][dH][dW]
B33: wrlkvrwr (peptide)
peptide: [dW][dR][dL][dK][dV][dR][dW][dR]
B34: fkihikhy (peptide)
peptide: [dF][dK][dI][dH][dI][dK][dH][dY]
B35: lkleirwh (peptide)
peptide: [dL][dK][dL][dE][dI][dR][dW][dH]
B36: fklklrwf (peptide)
peptide: [dF][dK][dL][dK][dL][dR][dW][dF]
B37: lkiriehy (peptide)
peptide: [dL][dK][dI][dR][dI][dE][dH][dY]
B38: wwlrihww (peptide)
peptide: [dW][dW][dL][dR][dI][dH][dW][dW]
B39: fkiklkw (peptide)
peptide: [dF][dK][dI][dK][dL][dK][dW]
B40: lkirihyh (peptide)
peptide: [dL][dK][dI][dR][dI][dH][dY][dH]
B41: hrlkvrww (peptide)
peptide: [dH][dR][dL][dK][dV][dR][dW][dW]
B42: wwlklrw (peptide)
peptide: [dW][dW][dL][dK][dL][dR][dW]
B43: wkvqvrw (peptide)
peptide: [dW][dK][dV][dQ][dV][dR][dW]
B44: wrlkvrww (peptide)
peptide: [dW][dR][dL][dK][dV][dR][dW][dW]
B45: wklwlrw (peptide)
peptide: [dW][dK][dL][dW][dL][dR][dW]
modifications: not fully specified; printed as wklwlrw
B46: wrlrihww (peptide)
peptide: [dW][dR][dL][dR][dI][dH][dW][dW]
B47: wqlkvqw (peptide)
peptide: [dW][dQ][dL][dK][dV][dQ][dW]
B48: wklwlrww (peptide)
peptide: [dW][dK][dL][dW][dL][dR][dW][dW]
B49: felrlhwh (peptide)
peptide: [dF][dE][dL][dR][dL][dH][dW][dH]
B50: wrlwihw (peptide)
peptide: [dW][dR][dL][dW][dI][dH][dW]
B51: fririhhf (peptide)
peptide: [dF][dR][dI][dR][dI][dH][dH][dF]
B52: lkiriheh (peptide)
peptide: [dL][dK][dI][dR][dI][dH][dE][dH]
B53: wrlkvrwh (peptide)
peptide: [dW][dR][dL][dK][dV][dR][dW][dH]
B54: ldlrfkly (peptide)
peptide: [dL][dD][dL][dR][dF][dK][dL][dY]
B55: lkikihy (peptide)
peptide: [dL][dK][dI][dK][dI][dH][dY]

Biological target: Ac-VQIINK-NH2 (SEQ ID NO: 23) (N-terminal acetyl (Ac); C-terminal amide (NH2))
Assay: cell-based or functional assay

Row | Binder | VQIINK Inhibition IC50 [µm]
1 | B1 | 2.2
2 | B2 | 1.76
3 | B3 | 2.13
4 | B4 | 1.84
5 | B5 | 1.58
6 | B6 | 1.81
7 | B7 | 1.98
8 | B8 | 1.75
9 | B9 | 1.57
10 | B10 | 2.15
11 | B11 | 2.17
12 | B12 | 1.73
13 | B13 | 1.95
14 | B14 | 2.01
15 | B15 | 1.8
16 | B16 | 1.89
17 | B17 | 2.23
18 | B18 | 1.66
19 | B19 | 1.79
20 | B20 | 2.26
21 | B21 | 1.63
22 | B22 | 1.74
23 | B23 | 1.71
24 | B24 | 1.97
25 | B25 | 1.81
26 | B26 | 2.12
27 | B27 | 1.98
28 | B28 | 2.1

Row | Binder | VQIINK Inhibition IC50 [µm]
29 | B29 | 2.23
30 | B30 | 1.78
31 | B31 | 2.12
32 | B32 | 2.11
33 | B33 | 1.7
34 | B34 | 1.77
35 | B35 | 1.76
36 | B36 | 2.2
37 | B37 | 1.57
38 | B38 | 1.83
39 | B39 | 1.55
40 | B40 | 1.99
41 | B41 | 1.77
42 | B42 | 1.99
43 | B43 | 2.21
44 | B44 | 1.97
45 | B45 | 1.95
46 | B46 | 1.88
47 | B47 | 2.27
48 | B48 | 1.58
49 | B49 | 1.57
50 | B50 | 1.73
51 | B51 | 2.02
52 | B52 | 1.75
53 | B53 | 1.92
54 | B54 | 1.55
55 | B55 | 1.96

From patent US20200216495A1 (ADRX, published 2020)
